± gives the uncertainty stated by the source.
B1: SAM and SH3 domain-containing protein 1, residues 630 to 700; numbered along this chain, O94885 (parent)
chain: GRPPQPKSVEDLLDRINLKEHMPTFLFNGYEDLDTFKLLEEEDLDELNIRDPEHRAVLLTAVELLQEYDSN

Variants of: B1
Assay: abundance fitness (aPCA) (normalised: wild type 0, dead -1); higher = more abundant; growth selection in yeast, the domain comes from the species named
Details: Homo sapiens

Variant	abundance fitness
GRPPQAKSVEDLLDRINLKEHMPTFLFNGYEDLDTFKLLEEEDLDELNIRDPEHRAVLLTAVELLQEYDSN [P6A]	-0.421 ± 0.056
GRPPQMKSVEDLLDRINLKEHMPTFLFNGYEDLDTFKLLEEEDLDELNIRDPEHRAVLLTAVELLQEYDSN [P6M]	-0.264 ± 0.07
GRPPQYKSVEDLLDRINLKEHMPTFLFNGYEDLDTFKLLEEEDLDELNIRDPEHRAVLLTAVELLQEYDSN [P6Y]	0.128 ± 0.049
GRPPQPKSVEDLQDRINLKEHMPTFLFNGYEDLDTFKLLEEEDLDELNIRDPEHRAVLLTAVELLQEYDSN [L13Q]	-0.447 ± 0.081
GRPPQPKSVEDLDDRINLKEHMPTFLFNGYEDLDTFKLLEEEDLDELNIRDPEHRAVLLTAVELLQEYDSN [L13D]	-0.762 ± 0.1
GRPPQPKSVEDLCDRINLKEHMPTFLFNGYEDLDTFKLLEEEDLDELNIRDPEHRAVLLTAVELLQEYDSN [L13C]	-0.946 ± 0.1
GRPPQPKKVEDLLDRINLKEHMPTFLFNGYEDLDTFKLLEEEDLDELNIRDPEHRAVLLTAVELLQEYDSN [S8K]	-0.759 ± 0.11
GRPPQPKSVEDLLDRINLKEHMLTFLFNGYEDLDTFKLLEEEDLDELNIRDPEHRAVLLTAVELLQEYDSN [P23L]	-0.056 ± 0.037
GRPPQPKSVEDLLDRINLKEHMPTFLFNGYEDLDTFKLLEEEDLDELNIRDPEHRAVKLTAVELLQEYDSN [L58K]	-0.588 ± 0.085
GRPPQPKSVEDLLDRINLKEHMPTFLFNGYEDLDTFKLLEEEDLDELNIRDPEHRAVGLTAVELLQEYDSN [L58G]	-0.667 ± 0.068
GRPPQPKSVEDLLDRINLKEHMPTFLFNGYEDLDTFKLLEEEDLDELNIRDPEHRAVSLTAVELLQEYDSN [L58S]	-0.516 ± 0.054
GRPPQPKSVEDLLDRINLKEHMPTFLFNGYEDLDTFKLLEEEVLDELNIRDPEHRAVLLTAVELLQEYDSN [D43V]	-0.456 ± 0.047
GRPPQPKSVGDLLDRINLKEHMPTFLFNGYEDLDTFKLLEEEDLDELNIRDPEHRAVLLTAVELLQEYDSN [E10G]	-0.434 ± 0.063
GRPQQPKSVEDLLDRINLKEHMPTFLFNGYEDLDTFKLLEEEDLDELNIRDPEHRAVLLTAVELLQEYDSN [P4Q]	0.159 ± 0.056
HRPPQPKSVEDLLDRINLKEHMPTFLFNGYEDLDTFKLLEEEDLDELNIRDPEHRAVLLTAVELLQEYDSN [G1H]	-0.161 ± 0.12
GRPPQPKSVEDLLDRINLKEHMPTFLFNGYEDLDTFKLLEEEDLDELNIRDPELRAVLLTAVELLQEYDSN [H54L]	-0.849 ± 0.055
GRPPQPKSVEDLLDRINLKEHMPTFLFNGYEDLDTFKLLEEEDLDELNIRDPECRAVLLTAVELLQEYDSN [H54C]	-0.678 ± 0.058
GRPPQPKSVEDLLDRINLKEHMPTFLFNGYEDLDTFKLLEEEDLDELNIRDPEFRAVLLTAVELLQEYDSN [H54F]	-1.03 ± 0.085
GRPPQPKSVEDLLDRKNLKEHMPTFLFNGYEDLDTFKLLEEEDLDELNIRDPEHRAVLLTAVELLQEYDSN [I16K]	-0.735 ± 0.097
GRPPQPKSVEDLLDRINLKEHMPTFLFNGYEDLDTFKLLEEEDLDELEIRDPEHRAVLLTAVELLQEYDSN [N48E]	0.084 ± 0.099
GRPPQPKSVEDLLDRINLKEHMPTFLFNGYEDLDTFKLLEEEDLDELRIRDPEHRAVLLTAVELLQEYDSN [N48R]	-0.319 ± 0.08
GRPPQPKSVEDLLDRINLKEHMPTFLFNGYEDLDTFKLLEEEDLDELNIRDPEHRAVLLTAVEFLQEYDSN [L64F]	-0.117 ± 0.043
GRPPQPKSVEDLLDRINLKEHMPTFLFNGYEDLDTFKLLEEEDLDELNIRDPEHRAVLLTAVEDLQEYDSN [L64D]	0.33 ± 0.041
GRPPQPKSVEDLLDRINLKEMMPTFLFNGYEDLDTFKLLEEEDLDELNIRDPEHRAVLLTAVELLQEYDSN [H21M]	-0.085 ± 0.046
GRPPQPKSVEDLLDRINLKEHMPTFLFNGYEDLDTFKLLEEEDLDELNGRDPEHRAVLLTAVELLQEYDSN [I49G]	-0.785 ± 0.062
GRPPQPKSDEDLLDRINLKEHMPTFLFNGYEDLDTFKLLEEEDLDELNIRDPEHRAVLLTAVELLQEYDSN [V9D]	-0.736 ± 0.089

Variant	abundance fitness
GRPPQPKSVEDLLDRINLKEHMPTFLFNGYEDLDTFKLLDEEDLDELNIRDPEHRAVLLTAVELLQEYDSN [E40D]	0.011 ± 0.057
GRPPQPKSVEDLLDRINLPEHMPTFLFNGYEDLDTFKLLEEEDLDELNIRDPEHRAVLLTAVELLQEYDSN [K19P]	-0.279 ± 0.043
GRPPQPKSVEDLLDRINLWEHMPTFLFNGYEDLDTFKLLEEEDLDELNIRDPEHRAVLLTAVELLQEYDSN [K19W]	-0.607 ± 0.072
GRPPQPKSVEDLLDRINLIEHMPTFLFNGYEDLDTFKLLEEEDLDELNIRDPEHRAVLLTAVELLQEYDSN [K19I]	-0.073 ± 0.042
GRPPQPKSVEDLLDRINLKEHMPTFLFNGYEDLDTFKLLEHEDLDELNIRDPEHRAVLLTAVELLQEYDSN [E41H]	-0.7 ± 0.076
GRPPQPKSVEDLLDRINLKEHMPTFLFNGYEDLDTFKLLEEEDLDELNIRDPEHRAVLLTAVELLREYDSN [Q66R]	0.33 ± 0.034
GRPPQPKSVEDLLDRINLKEHMPTFLFNGYEDMDTFKLLEEEDLDELNIRDPEHRAVLLTAVELLQEYDSN [L33M]	-0.64 ± 0.084
GRPPQPKSVEDLLDRINLKEHMPTFLFNGYEDLDTFKLLEEEDLDELNIRDPEHRAVLLTAVELLQEYDSE [N71E]	0.163 ± 0.074
GRPPQPKSVEDLLDRINLKEHMPTFLFNGYEDLDTFKLLEEEDLDELNIRDPEHRAVLLTAVELLQEYDSF [N71F]	-0.117 ± 0.082
GRPPQPKSVEDLLDRINLKEHMPTFLFNGYEDLDTFKLLEEEDLDELNIRDPEHMAVLLTAVELLQEYDSN [R55M]	-0.896 ± 0.1
GRPPQPKSVEDLLDRINLKEHMPTFLFNGYEDLDTFKLLEEEDLDELNIRDPEHDAVLLTAVELLQEYDSN [R55D]	-0.77 ± 0.085
GRPPQPKSVEDLLDRINLKEHMPTFLFNGYEDLDTFKLLEEEDLDELNIRDPEHRAVLLTAVELLQEYDTN [S70T]	0.422 ± 0.28
GRPPQPCSVEDLLDRINLKEHMPTFLFNGYEDLDTFKLLEEEDLDELNIRDPEHRAVLLTAVELLQEYDSN [K7C]	-0.533 ± 0.066
GRPPQPISVEDLLDRINLKEHMPTFLFNGYEDLDTFKLLEEEDLDELNIRDPEHRAVLLTAVELLQEYDSN [K7I]	-0.086 ± 0.042
GRPPQPKSVEDLLDRINLKEHMPTFLFNGYEDLDTPKLLEEEDLDELNIRDPEHRAVLLTAVELLQEYDSN [F36P]	-0.9 ± 0.092
GVPPQPKSVEDLLDRINLKEHMPTFLFNGYEDLDTFKLLEEEDLDELNIRDPEHRAVLLTAVELLQEYDSN [R2V]	-0.472 ± 0.064
GRPPQPKSVEYLLDRINLKEHMPTFLFNGYEDLDTFKLLEEEDLDELNIRDPEHRAVLLTAVELLQEYDSN [D11Y]	-0.717 ± 0.067
GRPPQPKSVESLLDRINLKEHMPTFLFNGYEDLDTFKLLEEEDLDELNIRDPEHRAVLLTAVELLQEYDSN [D11S]	-0.749 ± 0.052
GRPPQPKSVEDLLDRINLKEHMPTFLFNGYEDLDTFKLLEEEDLDELNIRDPRHRAVLLTAVELLQEYDSN [E53R]	-0.266 ± 0.045
GRPPQPKSVEDLLDRINLKEHMPTNLFNGYEDLDTFKLLEEEDLDELNIRDPEHRAVLLTAVELLQEYDSN [F25N]	-0.612 ± 0.072
GRPPQPKSVEDLLDRINLKEHMPLFLFNGYEDLDTFKLLEEEDLDELNIRDPEHRAVLLTAVELLQEYDSN [T24L]	-0.367 ± 0.04
GRPPQPKSVEDLLDRINLKEHMPQFLFNGYEDLDTFKLLEEEDLDELNIRDPEHRAVLLTAVELLQEYDSN [T24Q]	-0.544 ± 0.064
GRPPQPKSVEDLLDRINLKEHMPTFLFNGYEDLDTFILLEEEDLDELNIRDPEHRAVLLTAVELLQEYDSN [K37I]	-0.848 ± 0.093
GRPPQPKSVEDLLDRINLKEHMPTFLFNGYEDLDTFALLEEEDLDELNIRDPEHRAVLLTAVELLQEYDSN [K37A]	-0.226 ± 0.047
GRPPQPKSVEDLLDRINLKEHMPTFLFNGYEDLDTFKLLEEEDLDELNIRDPEHRARLLTAVELLQEYDSN [V57R]	0.418 ± 0.034
GRPPQPKSVEDLLDRINLKEHMPTFLFNGYEDLDTFKLLEEEDLDELNIRDPEHRAVLLTAVELLQEWDSN [Y68W]	-0.056 ± 0.051

Variant	abundance fitness
GRPPQPKSVEDLLDRINLKEHMPTFLFNGYEDLDAFKLLEEEDLDELNIRDPEHRAVLLTAVELLQEYDSN [T35A]	0.067 ± 0.042
GRPPQPKSVEDLLDRINLKEHMPTFLFNGYEQLDTFKLLEEEDLDELNIRDPEHRAVLLTAVELLQEYDSN [D32Q]	-0.382 ± 0.047
GRPPQPKSVEDLLDRINLKEHMPTFLFNGYEYLDTFKLLEEEDLDELNIRDPEHRAVLLTAVELLQEYDSN [D32Y]	-0.776 ± 0.07
GRVPQPKSVEDLLDRINLKEHMPTFLFNGYEDLDTFKLLEEEDLDELNIRDPEHRAVLLTAVELLQEYDSN [P3V]	0.035 ± 0.042
GRRPQPKSVEDLLDRINLKEHMPTFLFNGYEDLDTFKLLEEEDLDELNIRDPEHRAVLLTAVELLQEYDSN [P3R]	-0.302 ± 0.046
GRQPQPKSVEDLLDRINLKEHMPTFLFNGYEDLDTFKLLEEEDLDELNIRDPEHRAVLLTAVELLQEYDSN [P3Q]	-0.118 ± 0.051
GRPPQPKSVEDLLDRINLKEHMPTFLFNGYEDLDTFKLLEEEDLDELNIRDPEHRAVLLTAVNLLQEYDSN [E63N]	-0.066 ± 0.043
GRPPQPKSVEDLLDRINLKEHMPTFLFNGYEDLDTFKLLEEEDLDELNIRDPEHRGVLLTAVELLQEYDSN [A56G]	-0.337 ± 0.05
GRPPQPKSVEDLLDRINLKEHMPTFLFNGYEDLDTFKLLEEEDLDELNIRDPEHRAVLLTAVELLQEYISN [D69I]	-0.836 ± 0.09
GRPPQPKSVEDLLDRINLKEHMPTFLFPGYEDLDTFKLLEEEDLDELNIRDPEHRAVLLTAVELLQEYDSN [N28P]	-0.856 ± 0.075
GRPPQPKSVEDLLDRINLKEHMPTFLFNGYEDLDTFKLLEEEDLDEENIRDPEHRAVLLTAVELLQEYDSN [L47E]	-0.765 ± 0.094
GRPPQPKSVEDLLDRINLKEHMPTFLFNGYEDLDTFKLLEEEDLDEQNIRDPEHRAVLLTAVELLQEYDSN [L47Q]	-0.805 ± 0.092
GRPPQPKSVEDLLDRINLKEHMPTFLFNGYEDLDTFKLLEEEDLDELNIRDPEHRAVLLTAVELLQWYDSN [E67W]	-0.438 ± 0.06
GRPPQPKSVEDLLDRINLKEHMPTFLFNGYEDLDTFKLLEEEDLDELNIRDPEHRAVLLTAVELWQEYDSN [L65W]	-0.959 ± 0.097
GRPPQPKSVEDLLDRINLKEHMPTFLFNGYEDLDTFKLLEEEDLDELNIRDPEHRAVLLTAVELFQEYDSN [L65F]	-0.696 ± 0.072
GRPPQPKSVEDLLDRINLKEHMPTFLFNMYEDLDTFKLLEEEDLDELNIRDPEHRAVLLTAVELLQEYDSN [G29M]	-0.739 ± 0.089
GRPPQPKSVEDLLDRINLKEHMPTFLFNGYMDLDTFKLLEEEDLDELNIRDPEHRAVLLTAVELLQEYDSN [E31M]	-0.158 ± 0.046
GRPPQPKSVEDLLDRINLKEHMPTFLFNGYDDLDTFKLLEEEDLDELNIRDPEHRAVLLTAVELLQEYDSN [E31D]	0.129 ± 0.042
GRPPQPKSVEDLLDRINLKEHMPTFLFNGYEDLDTFKLLEEEDLDELNIRDPEHRAVLLSAVELLQEYDSN [T60S]	0.227 ± 0.032
GRPPQPKSVEDLLDRINLKEHMPTFLFNGYEDLDTFKLLEEEDLDELNIRDPEHRAVLLIAVELLQEYDSN [T60I]	-0.927 ± 0.082
GRPPQPKSVEDLLDRINLKEHMPTFLGNGYEDLDTFKLLEEEDLDELNIRDPEHRAVLLTAVELLQEYDSN [F27G]	0.166 ± 0.039
GRPPQPKSVEDLLDRINLKEHMPTFLFNGYEDLDTFKLLEEKDLDELNIRDPEHRAVLLTAVELLQEYDSN [E42K]	0.283 ± 0.048
GRPPQPKSVEDLLDRINLKEHMPTFLFNGYEDLDTFKTLEEEDLDELNIRDPEHRAVLLTAVELLQEYDSN [L38T]	0.23 ± 0.041
GRPPQPKSVEDLLDRINLKEHMPTFLFNGYEDLDTFKFLEEEDLDELNIRDPEHRAVLLTAVELLQEYDSN [L38F]	-0.234 ± 0.059
